Measurements reported in patent US20190142860A1, “NUCLEIC ACID BASED TIA-1 INHIBITORS” (Aquinnah Pharmaceuticals, Inc., priority 2015, published 2019).
“Also recorded” adds a separate entry of the source. Residues, ends and D or L forms follow the SMILES beside them. *: point of attachment. Cbz = O=C(OCc1ccccc1)*

What was measured:
[1] = test system: tau-induced TIA1+ SGs in HT22 cells; assay: PKR / PERK inhibitors on tau-mediated SG formation; type: cell-based, mouse; conditions: TIA1 ± WT tau, 24 hrs, C16 1 μM, GSK2606414 50 nM
Method: The eukaryotic translation initiation factor eIF2α is regulated by phosphorylation. […] SGs were induced by transfection with TIA1±WT tau. After 24 hrs the cells were treated with inhibitors of PKR (C16, 1 μM, Sigma) or PERK (GSK2606414, 50 nM, EMD/Millipore), and then SG number was quantified after 24 hrs.

[2] = test system: tau; assay: Tau levels with TIA1 over-expression under proteasome or autophagy inhibition, immunoblot in HT22 cells; type: cell-based, mouse; conditions: overnight, MG132 5 μM, chloroquine 50 μM
Method: Immunoblots were preformed using gradient PAGE on a 15-well 4-12% Bis-Tris gel (Invitrogen). Blocking was done in 5% milk for lhr at RT. Primary antibody incubation was at 4° C. overnight with 1:7,500 mouse monoclonal Tau13, 1:500 mouse monoclonal PHF1, 1:500 goat polyclonal TIA1 (Santa Cruz), 1:500 mouse monoclonal synaptophysin (Santa Cruz), 1:1,000 mouse monoclonal PSD-95 (NeuroMab), 1:1,000 rabbit polyclonal caspase-3 or cleaved caspase 3 (Cell Signaling), or 1:10,000 mouse monoclonal actin (Millipore) in PBS. Secondary antibody was incubated in 5% milk for 1 hr at RT. Developing was done using SuperSignal West Pico Substrate (Thermo).

[3] = test system: granules positive for TIA1 and phospho-tau (P-S396/404, PHF1); assay: Tau kinase inhibitor study: TIA1+ SGs and PHF1+ tau granules; type: cell-based, mouse; conditions: HT22 cells, TIA1 and WT tau, 24 hrs; for formation of granules positive for TIA1 and phospho-tau (SGs and tau granules): XXVI 20 μM, CDK2/5 inhibitor 5 μM, SB203580 20 μM, 39621 20 μM, PP2 20 nM
[4] = test system: stress granules (SGs) in HT22 cells; assay: Stress granule / tau granule formation in HT22 cells expressing tau and TIA1; type: cell-based, mouse; conditions: for formation of tau granules: neuronal cell lines
Method: HT22 cells were transfected using Lipofectamine (Invitrogen), incubated 24 hours, and treated after 24 hrs (25 uM salubrinal, 5 μg/ml puromycin, 10 μg/ml cycloheximide). At 48 hours the cells were fixed in 4% PFA.
HT22 cells were maintained in DMEM (4.5 g glucose/L) media supplemented with 10% fetal bovine serum, lx PenStrep (Invitrogen), lx L-Glutamine (Invitrogen), and 1× non-essential amino acids. Cells were passaged twice a week 1:5. Cells were seeded on 18 mm poly-D-lysine coated coverslips in 12-well plates (75,000/coverslip) one day prior to transfection in […] media (DMEM, 10% FBS). Cells were transfected at 1:2 ratio DNA:Lipofectamine (Invitrogen), delivering 2 μg total DNA per well. Lipofectamine in OptiMEM (Invitrogen) is incubated for 5 min prior to the addition of the DNA/OptiMEM. The transfection mixture is then allowed to incubate for 20 min at room temperature prior to being added to the cells. 500 μL of media is removed and 500 μL of transfection mixture is added dropwise to each well. Cells were incubated 24 hours, after which the addition of 25 μM salubrinal may be added to half of the plates and allowed to incubate for 24 hours. At 48 hours post-transfection, the cells were fixed in 4% PFA and stored in PBS.
Granule count cells: SG density was quantified using Image J software by calculating the number of puncta […] per 63× frame controlled for the number of cells. This was done by thresholding images, and using the analyze particle functionality. Quantifications of granule counts and area in primary neurons was done in ImageJ by using a free-hand tool to outline the neuron, thresholding the image, creating a mask over the nucleus, and using the particle analyzer tool.

[5] = test system: primary hippocampal neurons; assay: Dendrite length of primary hippocampal neurons (MAP2, NeuronJ); type: cell-based, mouse; conditions: Tau−/− and TIA1−/− neurons, WT or P301L tau ± TIA1, DIV21; puromycin 5 μg/ml, cycloheximide 10 μg/ml
Description: SG density and dendritic processes were quantified using Image J (using ImageJ plug-ins NeuronJ, tracing MAP2 positive processes for dendritic measurements). Granule movement and formation was quantified using Bitplane Imaris Track software (Imaris).
Measurements of dendritic processes were done using ImageJ plug-ins NeuronJ. Using the software to trace MAP2 positive processes of individual cells yields a pixel measurement that can then be back calculated to micrometers using the microscope scaling parameters.

[6] = test system: tau granules in primary hippocampal neurons; assay: Tau granules in dendrites of primary tau−/− hippocampal neurons; type: cell-based, mouse; conditions: WT or P301L tau ± TIA1, treated at DIV21, cycloheximide 10 μg/ml
Method: Primary hippocampal cultures were generated from P0 pups from C57Bl/6 WT, TIA1 −/−, or tau −/− mice. The hippocampus was dissected out in Hank's Balanced Salt Solution buffered with HEPES and PenStrep, and dissociated with 0.125% trypsin for 15 min at 37° C., followed by trituration. Dissociated cells were plated on plates of coverslips pre-coated with Poly-D lysine (100 μg/mL, Sigma). Neurons were grown for 21 days in Neurobasal medium supplemented with B-27 (Invitrogen)
At DIV3 neurons were transduced with AAV9-TIA1-mRFP or AAV9-mRFP virus (MOI 20). At DIV7 neurons were transduced with AAV1-WT tau-V5 or AAV1-P301L tau-V5 virus (MOI 20). Neurons were fixed for immunolabeling and confocal microscopy in 4% PFA, or lysed in via sonication in PBS with protease and phosphatase inhibitors.
Granule count neurons: Quantifications of granule counts and area in primary neurons was done in ImageJ by using a free-hand tool to outline the neuron, thresholding the image, creating a mask over the nucleus, and using the particle analyzer tool.

[7] = target: Nucleolysin TIA-1 (endogenous mouse TIA1) (mouse) (UniProt P52912); assay: TIA1 IP-MS, WT1 cortex
Chain of UniProt P52912 (P52912 whole entry): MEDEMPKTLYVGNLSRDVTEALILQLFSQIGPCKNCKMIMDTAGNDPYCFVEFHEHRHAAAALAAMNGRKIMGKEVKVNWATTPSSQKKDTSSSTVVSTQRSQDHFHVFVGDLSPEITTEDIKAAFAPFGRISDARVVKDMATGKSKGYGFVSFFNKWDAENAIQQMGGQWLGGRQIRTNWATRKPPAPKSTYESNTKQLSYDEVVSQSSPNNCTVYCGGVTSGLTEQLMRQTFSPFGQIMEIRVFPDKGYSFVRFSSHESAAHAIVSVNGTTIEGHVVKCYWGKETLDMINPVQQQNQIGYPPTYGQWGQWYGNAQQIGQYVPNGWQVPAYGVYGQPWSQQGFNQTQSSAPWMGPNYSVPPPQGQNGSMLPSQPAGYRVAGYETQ

[8] = target: Nucleolysin TIA-1 (endogenous mouse TIA1) (mouse) (UniProt P52912); assay: TIA1 IP-MS, tau KO 1 cortex
[9] = target: Nucleolysin TIA-1 (endogenous mouse TIA1) (mouse) (UniProt P52912); assay: TIA1 IP-MS, tau KO 2 cortex
[10] = target: Nucleolysin TIA-1 (endogenous mouse TIA1) (mouse) (UniProt P52912); assay: TIA1 IP-MS, WT3 cortex
[11] = target: Nucleolysin TIA-1 (endogenous mouse TIA1) (mouse) (UniProt P52912); assay: TIA1 IP-MS, WT2 cortex
[12] = target: Nucleolysin TIA-1 (endogenous mouse TIA1) (mouse) (UniProt P52912); assay: TIA1 IP-MS, tau KO 3 cortex
[13] = target: microtubules (mouse brain); assay: microtubule pelleting in RAB buffer / immunoblot, mouse cortex

Row | Compound | total ion current (normalized to TIA1 = 1000) [7] | total ion current (normalized to TIA1 = 1000) [8] | total ion current (normalized to TIA1 = 1000) [9] | total ion current (normalized to TIA1 = 1000) [10] | total ion current (normalized to TIA1 = 1000) [11] | total ion current (normalized to TIA1 = 1000) [12] | further results
1 | O=C1Nc2ccc3ncsc3c2/C1=C/c1cnc[nH]1 [C16] |  |  |  |  |  |  | tau-mediated SG formation (SG number) [1]: strongly inhibited; also recorded: Inhibition
2 | Cn1cc(-c2ccc3c(c2)CCN3C(=O)Cc2cccc(C(F)(F)F)c2)c2c(N)ncnc21 [GSK2606414] |  |  |  |  |  |  | tau-mediated SG formation (SG number) [1]: strongly inhibited; also recorded: Inhibition
3 | CC(C)C[C@@H](C=O)NC(=O)[C@H](CC(C)C)NC(=O)[C@H](CC(C)C)NC(=O)OCc1ccccc1 [MG132] (Cbz-Leu-Leu-Leu-aldehyde) |  |  |  |  |  |  | decreases in tau associated with TIA1 over-expression [2]: neither MG132 nor chloroquine prevented decreases in tau
4 | CC(C)(C)n1nc(-c2ccc(Cl)cc2)c2c(N)ncnc21 [PP2] |  |  |  |  |  |  | formation of granules positive for TIA1 and phospho-tau (SGs and tau granules) [3]: inhibition of SGs and tau granules
5 | C[S+]([O-])c1ccc(-c2nc(-c3ccncc3)c(-c3ccc(F)cc3)[nH]2)cc1 (centres unmarked) [SB203580] |  |  |  |  |  |  | SG inhibition, comparison among the kinase inhibitors [3]: strongest SG inhibition; formation of granules positive for TIA1 and phospho-tau (SGs and tau granules) [3]: Inhibition
6 | Cn1cc(-c2[nH][nH]c(=O)c2-c2cn(C)c3ccccc23)c2ccccc21 [XXVI] |  |  |  |  |  |  | formation of granules positive for TIA1 and phospho-tau (SGs and tau granules) [3]: inhibition of SGs and tau granules
7 | CCN(CC)CCCC(C)Nc1ccnc2cc(Cl)ccc12 (centres unmarked) [chloroquine] |  |  |  |  |  |  | decreases in tau associated with TIA1 over-expression [2]: neither MG132 nor chloroquine prevented decreases in tau
8 | C[C@@H]1C[C@@H]([C@H](O)CC2CC(=O)NC(=O)C2)C(=O)[C@@H](C)C1 [cycloheximide] |  |  |  |  |  |  | formation of tau/SG complexes (tau+ SGs) ([4]; HT22 cells over-expressing TIA1 and WT or P301L tau, arsenite, cycloheximide 10 μg/ml): prevented formation of the tau/SG complexes; also recorded: reversed; formation of tau granules [4]: prevented formation of tau granules; dendrite length [5]: did not affect dendrite length; tau granules in dendritic processes (Tau13, MAP2 imaging) [6]: spread diffusely with only small, less defined granules apparent
9 | COc1ccc(C[C@H](N)C(=O)N[C@H]2[C@@H](O)[C@H](n3cnc4c(N(C)C)ncnc43)O[C@@H]2CO)cc1 [puromycin] |  |  |  |  |  |  | formation of tau granules [4]: stimulated formation of tau granules; dendrite length [5]: potentiated the decrease in dendritic length; tau granules in dendritic processes (Tau13, MAP2 imaging) [6]: larger and more abundant tau granules
10 | Transcriptional activator protein Pur-alpha (from UniProt P42669 2-321) | 0 | 0 | 39.7 | 269 | 264 | 0 | 
11 | Transformer-2 protein homolog beta (from UniProt P62996 2-288) | 0 | 0 | 33.3 | 0 | 70.9 | 0 | 
12 | Tripartite motif-containing protein 2 (from UniProt Q9ESN6 1-744) | 0 | 0 | 0 | 0 | 106 | 0 | 
13 | Tubulin polymerization-promoting protein (from UniProt Q7TQD2 1-218) | 0 | 0 | 40.4 | 220 | 299 | 0 | 
14 | U1 small nuclear ribonucleoprotein 70 kDa (from UniProt Q62376 2-448) | 6.22 | 0 | 0 | 0 | 0 | 0 | 
15 | Ubiquitin thioesterase OTUB1 (from UniProt Q7TQI3 2-271) | 0 | 0 | 16.9 | 45.6 | 80.5 | 0 | 
16 | V-type proton ATPase catalytic subunit A (from UniProt P50516 1-617) | 0 | 0 | 214 | 71.9 | 319 | 0 | 
17 | V-type proton ATPase subunit H (from UniProt Q8BVE3 1-483) | 0 | 0 | 30.3 | 57.6 | 101 | 0 | 
18 | Vesicular glutamate transporter 1 (from UniProt Q3TXX4 1-560) | 0 | 130 | 64.5 | 0 | 141 | 0 | 
19 | alkylbenzyldimethyammonium chloride |  |  |  |  |  |  | formation of granules positive for TIA1 and phospho-tau (SGs and tau granules) [3]: inhibition of SGs and tau granules
20 | human 1N4R tau with the P301S mutation (PS19 transgene) (from UniProt P10636 2-412) |  |  |  |  |  |  | fold increase in the ratio of MT-bound (P) to unbound (S) tau, P301S TIA1+/- against P301S TIA1+/+ [13]: 3 fold
